Data reported in patent US11608367B2, “Peptides for angiogenic therapy” (The Regents of the University of California, priority 2018, dated 2023).
Residue numbers refer to the chain shown, from its start.

Tests used:
[1] = system: cancer, cardiac and neuronal cell lines; assay: Categorisation of active ADPs as pro-/anti-apoptotic (Example 15); conditions: criteria of Example 15
[2] = Effectiveness of ADPs (Example 1, Table 6; cell death assays of FIGS. 10-13); format: cell-based; conditions: ADPs with N-terminal tumor penetrating peptide and C-terminal fluorescent tag; graded in words
Text: FIGS. 10A-C show the sequences mapped, peptide blots, imaging to show expression and cell death assays for these three peptides. A) PPA-1 (PEPTIDE23) (SEQ ID NO:23), B) PPA4 (PEPTIDE19) (SEQ ID NO:19), C) PPA10 (PEPTIDE16 including FF at C-terminus) (SEQ ID NO:16).
FIGS. 11A-B show the sequences mapped, peptide blots, imaging to show expression and cell death assays for these HSP-70 peptides. A) PHA4 (PEPTIDE5) (SEQ ID NO:5), B) PHA5 (PEPTIDE13 plus C-terminal L) (SEQ IDS NO: 13).
FIGS. 12A-C show the sequences mapped, peptide blots, imaging to show expression and cell death assays for these p65 (RELA) peptides. A) PRA1 (PEPTIDE14) (SEQ ID NO:14), B) PRA8 (PEPTIDE8) (SEQ ID NO:8), C) PRA9 (SEQ ID Nos:33 and 37-45).
FIGS. 13A-D show the sequences mapped, peptide blots, imaging to show expression and cell death assays for these HSP-70 peptides. A) PAA1-1 (PEPTIDE11) (SEQ ID NO:11), B) PPA1-3 (PEPTIDE15) (SEQ ID NO:15), C) PAR1 (PEPTIDE19), D) Paint 1 (PEPTIDE7) (SEQ ID NO:7).
ADPs were first identified using Peptide SPOT analysis. Peptides were identified from AKIP1. PKAc, HSP-70 and p65 sequences. The identified ADPs were attached at the N-terminus to tumor penetrating peptide based on the CENDR rule (FIG. 9). A fluorescent tag was attached to the C-terminus for ease of visualization. […]

B1: KSQVISNAKNTVQGFKRFHGRAFSDPFVEAEKSNLAYDIVQWPTGLTGIKVTYMEEERNFTTEQVTAMLLSKLKETAESVLKKPVV (peptide)
chain: KSQVISNAKNTVQGFKRFHGRAFSDPFVEAEKSNLAYDIVQWPTGLTGIKVTYMEEERNFTTEQVTAMLLSKLKETAESVLKKPVV
[1]
  Pro-apoptotic (anti-angiogenic) category: Pro-apoptotic (anti-angiogenic)

B2: KSQVISNAKNTVQGFKRFHGRAFSDPFVEAEKSNLAYDIVQWPTGLTGIKVTYMEEERNFTIEQVTAMLLSKLKETAESVLKKPVV (peptide)
chain: B1 chain with T62I
[2]
  Effectiveness: Moderate
